Experimental findings from paper PMC7913688, “Human Rev1 relies on insert-2 to promote selective binding and accurate replication of stabilized G-quadruplex motifs” are described below.

Numbering of substitutions follows the chain as printed.

Data set [1] concerns the target T1, hRev1 330-833 polymerase core (human, UniProt Q9UBZ9 330-833).
T1 sequence: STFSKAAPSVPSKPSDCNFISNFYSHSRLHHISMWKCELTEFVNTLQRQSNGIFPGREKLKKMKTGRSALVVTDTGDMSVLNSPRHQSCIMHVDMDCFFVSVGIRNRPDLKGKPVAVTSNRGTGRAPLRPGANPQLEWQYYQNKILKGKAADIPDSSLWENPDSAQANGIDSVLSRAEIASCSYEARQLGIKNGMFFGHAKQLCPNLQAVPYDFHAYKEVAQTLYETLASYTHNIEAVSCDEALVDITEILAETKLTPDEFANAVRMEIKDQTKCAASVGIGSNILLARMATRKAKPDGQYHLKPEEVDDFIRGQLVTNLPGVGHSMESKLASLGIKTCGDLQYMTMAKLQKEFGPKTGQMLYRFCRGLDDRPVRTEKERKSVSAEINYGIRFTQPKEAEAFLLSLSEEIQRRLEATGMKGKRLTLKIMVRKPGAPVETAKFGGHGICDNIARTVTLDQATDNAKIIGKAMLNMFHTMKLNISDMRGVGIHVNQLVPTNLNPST
The experiment in a line: fluorescence polarization; 100 mM LiCl; Fluorescence polarization: 1 nM FAM-DNA, 100 mM KCl or LiCl; DNA annealed in 50 mM HEPES pH 7.5; full buffer as in cited ref 17, temperature not stated. Footprinting: 50 mM HEPES pH 7.5, 100 mM KCl, 10 uM protein, 30 uM ssDNA, room temperature. The settings on record: protein: recombinant; label: 5'-FAM.

Data set [2] concerns the target T1, hRev1 330-833 polymerase core. The experiment in a line: fluorescence polarization; 100 mM KCl; Fluorescence polarization: 1 nM FAM-DNA, 100 mM KCl or LiCl; DNA annealed in 50 mM HEPES pH 7.5; full buffer as in cited ref 17, temperature not stated. Footprinting: 50 mM HEPES pH 7.5, 100 mM KCl, 10 uM protein, 30 uM ssDNA, room temperature. The note with it: protein: recombinant. A general note: Fluorescence polarisation rises when a labelled molecule tumbles more slowly, as on binding a larger partner.

The target is the same in data set [3]. The experiment in a line: fluorescence polarization; 100 mM KCl (text: 406 +/- 38); Fluorescence polarization: 1 nM FAM-DNA, 100 mM KCl or LiCl; DNA annealed in 50 mM HEPES pH 7.5; full buffer as in cited ref 17, temperature not stated. Footprinting: 50 mM HEPES pH 7.5, 100 mM KCl, 10 uM protein, 30 uM ssDNA, room temperature. The note with it: protein: recombinant; label: 5'-FAM; hybrid G4 in K+.

Data set [4] has the same target. The experiment in a line: fluorescence polarization; 100 mM KCl (text: 1246 +/- 196); Fluorescence polarization: 1 nM FAM-DNA, 100 mM KCl or LiCl; DNA annealed in 50 mM HEPES pH 7.5; full buffer as in cited ref 17, temperature not stated. Footprinting: 50 mM HEPES pH 7.5, 100 mM KCl, 10 uM protein, 30 uM ssDNA, room temperature. The note with it: protein: recombinant; label: 5'-FAM.

The target is the same in data set [5]. The experiment in a line: fluorescence polarization; 100 mM LiCl (text: 139 +/- 17); Fluorescence polarization: 1 nM FAM-DNA, 100 mM KCl or LiCl; DNA annealed in 50 mM HEPES pH 7.5; full buffer as in cited ref 17, temperature not stated. Footprinting: 50 mM HEPES pH 7.5, 100 mM KCl, 10 uM protein, 30 uM ssDNA, room temperature. The note with it: protein: recombinant; label: 5'-FAM; antiparallel G4 in K+.

For data set [6] the target is unchanged. Nature of the data set: fluorescence polarization; 100 mM KCl (text: 127 +/- 14); Fluorescence polarization: 1 nM FAM-DNA, 100 mM KCl or LiCl; DNA annealed in 50 mM HEPES pH 7.5; full buffer as in cited ref 17, temperature not stated. Footprinting: 50 mM HEPES pH 7.5, 100 mM KCl, 10 uM protein, 30 uM ssDNA, room temperature. The note with it: protein: recombinant; label: 5'-FAM; antiparallel G4 in K+.

Where [7] appears, read: label: 5'-FAM on template, parallel G4 in 5' overhang 18 nt, 11 bp duplex.

B1: Non-G4 Bcl2 control ss (ssDNA)
DNA: AGCGGCGCGCGCTTTAGGAAAAGCGCGCGTTATGAGATGAT
For orientation: Kd means a measure of binding affinity in units of concentration. Turning to B1, the figures for the Kd in data set [1] and in data set [2] (label: 5'-FAM) were 750 ± 340 nM and 830 ± 310 nM, respectively.

B2: Non-G4 Bcl2 primer-template (mixed)
DNA 1: B1 DNA
DNA 2: ATCATCTCATA
Turning to B2, in data set [2] (label: 5'-FAM on template, 5' overhang 30 nt, 11 bp duplex), the Kd was 660 ± 120 nM.

B3: Bcl2 1245 ss G4 (structured_DNA)
DNA: B1 DNA with C3G, C8G, C24G, C28G
For the molecule B3, the Kd in data set [2] (label: 5'-FAM, parallel G4 (13-nt loop) in K+) was 76 ± 16 nM.

B4: Bcl2 1245 primer-template (mixed)
DNA 1: B1 DNA with C3G, C8G, C24G, C28G
DNA 2: ATCATCTCATA
Turning to B4, in data set [2] (label: 5'-FAM on template, parallel G4 in 5' overhang 30 nt, 11 bp duplex), the Kd came out at 97 ± 20 nM.

B5: hTelo-4 ss G4 (structured_DNA)
DNA: TTGGGTTAGGGTTAGGGTTAGGGATATGAGATGAT
For B5, in data set [3], the Kd came out at 410 ± 40 nM.

B6: hTelo-4 primer-template (mixed)
DNA 1: B5 DNA
DNA 2: ATCATCTCATA
Turning to B6, in data set [2] (label: 5'-FAM on template, hybrid G4 in 5' overhang 24 nt, 11 bp duplex), the Kd was determined as 840 ± 50 nM.

B7: Non-G4 Telo-4 control ss (ssDNA)
DNA: B5 DNA with G4C, G10C, G16C, G22C
In the case of B7, the dissociation constant Kd in data set [1] stood at 920 ± 120 nM; in data set [4] it was 1200 ± 200 nM.

B8: Non-G4 TBA control ss (ssDNA)
DNA: TGCTTGCTGTGCTTGCTATGAGATGAT
Turning to B8, the Kd in data set [1] stood at 310 ± 40 nM; in data set [2] (label: 5'-FAM), 380 ± 40 nM.

B9: Myc 14/23 primer-template (mixed)
DNA 1: AGGGTGGGTAGGGTGGGTTATGAGATGAT
DNA 2: ATCATCTCATA
B9: in data set [2] (setting [7]), the Kd stood at 59 ± 9 nM.

B10: Non-G4 Rev1-prom control ss (ssDNA)
DNA: AGCGCGCGGCCGGCGAGCGTATGAGATGAT
On to B10, for which the Kd in data set [1] came to 260 ± 120 nM; in data set [2] (label: 5'-FAM), 370 ± 70 nM.

B11: Non-G4 KRAS control ss (ssDNA)
DNA: AGCGCGCTGTGCGAAGAGCGAATATGAGATGAT
Consider B11, for which the Kd in data set [1] came to 1620 ± 800 nM; in data set [2] (label: 5'-FAM) it was 840 ± 90 nM.

B12: KRAS 22RT ss G4 (structured_DNA)
DNA: B11 DNA with C3G, C7G, C12G, C19G
As for B12, in data set [2] (label: 5'-FAM, parallel G4 in K+), the Kd is 52 ± 10 nM.

B13: KRAS 22RT primer-template (mixed)
DNA 1: B11 DNA with C3G, C7G, C12G, C19G
DNA 2: ATCATCTCATA
For B13, the Kd in data set [2] (label: 5'-FAM on template, parallel G4 in 5' overhang 22 nt, 11 bp duplex) was determined as 120 ± 10 nM.

B14: Non-G4 KRAS primer-template (mixed)
DNA 1: B11 DNA
DNA 2: ATCATCTCATA
For B14, the Kd in data set [2] (label: 5'-FAM on template, 5' overhang 22 nt, 11 bp duplex) stood at 1120 ± 80 nM.

B15: Rev1-prom ss G4 (structured_DNA)
DNA: AGGGCGGGGCCGGGGAGGGTATGAGATGAT
In the case of B15, the Kd in data set [2] (label: 5'-FAM, parallel G4 (1:4:1 loops as stated) in K+) was determined as 13 ± 3 nM.

B16: Myc 2/11 ss G4 (structured_DNA)
DNA: AGGGAGGGTGGGAAGGGTTATGAGATGAT
Turning to B16, the Kd in data set [2] (label: 5'-FAM, parallel G4 (1:1:2 loops) in K+) amounted to 22 ± 3 nM.

B17: Myc 2/11 primer-template (mixed)
DNA 1: AGGGAGGGTGGGAAGGGTTATGAGATGAT
DNA 2: ATCATCTCATA
B17: the Kd in data set [2] (setting [7]) came to 45 ± 6 nM.

B18: TBA ss G4 (structured_DNA)
DNA: TGGTTGGTGTGGTTGGTATGAGATGAT
In the case of B18, the Kd came out at 140 ± 20 nM in data set [5] and 130 ± 10 nM in data set [6].

B19: TBA primer-template (mixed)
DNA 1: TGGTTGGTGTGGTTGGTATGAGATGAT
DNA 2: ATCATCTCATA
Regarding B19, the Kd in data set [2] (label: 5'-FAM on template, antiparallel G4 in 5' overhang 16 nt, 11 bp duplex) turned out to be 165 ± 25 nM.

B20: Rev1-prom primer-template (mixed)
DNA 1: B15 DNA
DNA 2: ATCATCTCATA
Consider B20, for which the Kd in data set [2] (label: 5'-FAM on template, parallel G4 in 5' overhang 19 nt, 11 bp duplex) was 11 ± 2 nM.

B21: Non-G4 Rev1-prom primer-template (mixed)
DNA 1: B10 DNA
DNA 2: ATCATCTCATA
B21: the equilibrium dissociation constant (Kd) in data set [2] (label: 5'-FAM on template, 5' overhang 19 nt, 11 bp duplex) is 154 ± 30 nM.
